IntAct's records for PubMed 20877282

B1: Plexin-A2 (Mus musculus), P70207 (parent)
chain: MEQRRFYLRAMQADNLSVVLLSVAWLLLARGTTGMPQYSTFHSENRDWTFNHLTVHRRTGAVYVGAINRVYKLTGNLTIQVAHKTGPEEDNKACYPPLIVQPCSEVLTLTNNVNKLLIIDYSENRLLACGSLYQGVCKLLRLDDLFILVEPSHKKEHYLSSVNKTGTMYGVIVRSEGEDGKLFIGTAVDGKQDYFPTLSSRKLPRDPESSAMLDYELHSDFVSSLIKIPSDTLALVSHFDIFYIYGFASGGFVYFLTVQPETPDGMAINSAGDLFYTSRIVRLCKDDPKFHSYVSLPFGCTRAGVEYRLLQAAYLAKPGEALAQAFNISSDEDVLFAIFSKGQKQYHHPPDDSALCAFPIRAINLQIKERLQSCYHGEGNLELNWLLGKDVQCTKAPVPIDDNFCGLDINQPLGGSTPVEGLTLYTTSRDRLTSVASYVYNGYSVVFVGTKSGKLKKIRADGPPHGGVQYEMVSVFKDGSPILRDMAFSINQLYLYVMSERQVTRVPVESCEQYTTCGECLSSGDPHCGWCALHNMCSRRDKCQRAWEANRFAASISQCMSLEVHPNSISVSDHSRLLSLVVNDAPNLSEGIACAFGNLTEVEGQVSGSQVICISPGPKDVPVIPLDQDWFGLELQLRSKETGKIFVSTEFKFYNCSAHQLCLSCVNSAFRCHWCKYRNLCTHDPTTCSFQEGRINVSEDCPQLVPTEEILIPVGEVKPITLKARNLPQPQSGQRGYECVLSIQGAVHRVPALRFNSSSVQCQNSSYQYDGMDISNLAVDFAVVWNGNFIIDNPQDLKVHLYKCAAQRESCGLCLKADHKFECGWCSGERRCTLHQHCPSTSSPWLDWSSHNVKCSNPQITEILTVSGPPEGGTRVTIHGVNLGLDFSEIAHHVQVAGVPCTPIPGEYIIAEQIVCEMGHAVIGTTSGPVRLCIGECKPEFMTKSHQQYTFVNPSVLSLSPIRGPESGGTMVTITGHYLGAGSSVAVYLGNQTCEFYGRSMNEIVCVSPPSSNGLGPVPVSVSVDRARVDSSLQFEYIDDPRVQRIEPEWSITSGHTPLTITGFNLDVIQEPRVRVKFNGKESVNVCTVVNTTTLTCLAPSLTSDYRPGLDTVERPDEFGFLFNNVQSLLIYNDTKFIYYPNPTFELLSPTGILDQKPGSPIILKGKNLCPPASGGAKLNYTVMIGETPCTVTVSETQLLCEPPNLTGQHKVMVHVGGMVFSPGSVSVISDSLLTLPAIISIAAGGSLLLIIVIIVLIAYKRKSRENDLTLKRLQMQMDNLESRVALECKEAFAELQTDINELTSDLDRSGIPYLDYRTYAMRVLFPGIEDHPVLRELEVQGNGQQHVEKALKLFAQLINNKVFLLTFIRTLELQRSFSMRDRGNVASLIMTGLQGRLEYATDVLKQLLSDLIDKNLENKNHPKLLLRRTESVAEKMLTNWFAFLLHKFLKECAGEPLFMLYCAIKQQMEKGPIDAITGEARYSLSEDKLIRQQIEYKTLILNCVNPDNENSPEIPVKVLNCDTITQVKEKILDAVYKNVPYSQRPRAVDMDLEWRQGRIARVVLQDEDITTKIEGDWKRLNTLMHYQVSDRSVVALVPKQTSSYNIPASASISRTSISRYDSSFRYTGSPDSLRSRVPMITPDLESGVKVWHLVKNHDHGDQKEGDRGSKMVSEIYLTRLLATKGTLQKFVDDLFETLFSTVHRGSALPLAIKYMFDFLDEQADRHSIHDTDVRHTWKSNCLPLRFWVNVIKNPQFVFDIHKGSITDACLSVVAQTFMDSCSTSEHRLGKDSPSNKLLYAKDIPSYKNWVERYYADIAKLPAISDQDMNAYLAEQSRLHATEFNMLSALNEIYSYVSKYSEELIGALEQDEQARRQRLAYKVEHLINAMSIES
partner: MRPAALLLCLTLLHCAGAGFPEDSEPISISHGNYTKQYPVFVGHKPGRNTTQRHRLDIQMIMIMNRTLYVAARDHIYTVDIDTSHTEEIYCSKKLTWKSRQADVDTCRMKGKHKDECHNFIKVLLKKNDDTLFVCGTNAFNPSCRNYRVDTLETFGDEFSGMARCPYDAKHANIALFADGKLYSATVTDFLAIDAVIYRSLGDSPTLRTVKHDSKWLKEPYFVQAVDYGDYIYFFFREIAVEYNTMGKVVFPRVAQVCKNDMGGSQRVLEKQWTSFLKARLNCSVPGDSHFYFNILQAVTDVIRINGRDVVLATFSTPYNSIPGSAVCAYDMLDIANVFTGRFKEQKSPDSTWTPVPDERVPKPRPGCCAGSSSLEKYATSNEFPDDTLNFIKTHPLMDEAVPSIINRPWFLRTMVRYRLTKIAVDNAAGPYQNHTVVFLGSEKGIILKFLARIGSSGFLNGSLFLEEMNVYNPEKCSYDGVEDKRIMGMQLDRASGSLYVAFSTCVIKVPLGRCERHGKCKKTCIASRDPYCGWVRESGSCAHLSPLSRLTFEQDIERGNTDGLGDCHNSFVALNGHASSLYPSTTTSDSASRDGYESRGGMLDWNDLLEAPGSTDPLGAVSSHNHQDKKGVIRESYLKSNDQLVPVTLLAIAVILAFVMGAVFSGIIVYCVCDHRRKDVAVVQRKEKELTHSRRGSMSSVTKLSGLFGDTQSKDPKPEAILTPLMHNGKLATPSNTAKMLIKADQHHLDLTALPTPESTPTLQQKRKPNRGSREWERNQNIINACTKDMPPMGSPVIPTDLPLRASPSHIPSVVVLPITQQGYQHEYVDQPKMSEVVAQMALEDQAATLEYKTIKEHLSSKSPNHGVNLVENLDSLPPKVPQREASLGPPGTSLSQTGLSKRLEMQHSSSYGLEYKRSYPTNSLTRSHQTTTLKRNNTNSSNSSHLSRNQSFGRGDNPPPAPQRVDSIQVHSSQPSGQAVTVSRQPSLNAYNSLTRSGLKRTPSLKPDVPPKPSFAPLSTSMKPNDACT
B2: Semaphorin-6A (Mus musculus), O35464-1 (parent)
chain: B1 partner

Variants of: B1
Settings: with Sema6a

Variant	effect of a mutation on the interaction
A396E	disrupting interaction
F221R	disrupting interaction

Variants of: B2
Settings: with plxa2_mouse Plxna2, P70207

Variant	effect of a mutation on the interaction
L191R	decreasing interaction
